The test system of this data set is Escherichia coli TOP10. The data set is described as follows: shrunken log2 fold change of peptide-encoding DNA abundance (4.5 h post-induction vs induction); higher = less antimicrobial activity (less host growth inhibition). The settings on record: time post-induction: 4.5 h; library: site-saturation at positions 5, 18, 19, 20.
RRIRYRPPRLPRPRPRPCPMPRP: the “shrunken log2 fold change” value was -0.476. To RRIRMRPPRLPRPRPRPHFTPRP belongs -0.173; to RRIRIRPPRLPRPRPRPGNNPRP, -0.00577. For RRIRYRPPRLPRPRPRPWFPPRP, the “shrunken log2 fold change” value is -0.523. To RRIRCRPPRLPRPRPRPRGIPRP belongs 0.094; to RRIRVRPPRLPRPRPRPNRQPRP, -0.326; to RRIRVRPPRLPRPRPRPQLFPRP, 0.229. On to RRIRFRPPRLPRPRPRPVDWPRP, for which the “shrunken log2 fold change” value was 0.194.

On to RRIRVRPPRLPRPRPRPNYIPRP, for which the “shrunken log2 fold change” value is -0.631. For RRIRCRPPRLPRPRPRPAFMPRP, the “shrunken log2 fold change” value is 0.117. To RRIRARPPRLPRPRPRPMKWPRP belongs 0.126; to RRIRGRPPRLPRPRPRPVNEPRP, 0.517; to RRIRNRPPRLPRPRPRPPQFPRP, 0.334. To RRIRCRPPRLPRPRPRPHIKPRP belongs -0.788; to RRIRARPPRLPRPRPRPSITPRP, 0.107. Consider RRIRIRPPRLPRPRPRPNAPPRP, for which the “shrunken log2 fold change” value worked out at 0.00635. To RRIRMRPPRLPRPRPRPVYWPRP belongs 0.0687; to RRIRWRPPRLPRPRPRPGWSPRP, 0.221. In the case of RRIRKRPPRLPRPRPRPQGFPRP, the “shrunken log2 fold change” value was -0.00783.

In the case of RRIRWRPPRLPRPRPRPVFEPRP, the “shrunken log2 fold change” value was 0.333. Take RRIRFRPPRLPRPRPRPCQEPRP: the “shrunken log2 fold change” value came out at 0.176. To RRIRARPPRLPRPRPRPMCKPRP belongs 0.0809. Regarding RRIRHRPPRLPRPRPRPSDQPRP, the “shrunken log2 fold change” value was found to be 0.0718.

Turning to RRIRHRPPRLPRPRPRPKNQPRP, the “shrunken log2 fold change” value was -0.16. Consider RRIRSRPPRLPRPRPRPKCMPRP, for which the “shrunken log2 fold change” value is -0.218. With RRIRRRPPRLPRPRPRPKPYPRP, the “shrunken log2 fold change” value was -0.033. Turning to RRIRPRPPRLPRPRPRPSRCPRP, the “shrunken log2 fold change” value amounted to 0.093.

As to RRIRCRPPRLPRPRPRPRLSPRP, the “shrunken log2 fold change” value was determined as 0.0865.

Regarding RRIRIRPPRLPRPRPRPPYCPRP, the “shrunken log2 fold change” value is -0.328. Take RRIRHRPPRLPRPRPRPQHSPRP: the “shrunken log2 fold change” value is -0.376. To RRIRARPPRLPRPRPRPCWNPRP belongs -0.0387; to RRIRGRPPRLPRPRPRPSLGPRP, 0.488. For RRIRSRPPRLPRPRPRPQTHPRP, the “shrunken log2 fold change” value worked out at 0.901. For RRIRHRPPRLPRPRPRPPLAPRP the value was 0.378.

Consider RRIRYRPPRLPRPRPRPRIMPRP, for which the “shrunken log2 fold change” value is -1.06. Regarding RRIRQRPPRLPRPRPRPWCKPRP, the “shrunken log2 fold change” value was -0.0323.

As for RRIRDRPPRLPRPRPRPICLPRP, the “shrunken log2 fold change” value was found to be 0.0829. For RRIRERPPRLPRPRPRPTKSPRP the value was -0.00427. For RRIRSRPPRLPRPRPRPHVYPRP the value was -0.355; for RRIRHRPPRLPRPRPRPQVQPRP, 0.0789. To RRIRFRPPRLPRPRPRPTEPPRP belongs 0.00236. In the case of RRIRVRPPRLPRPRPRPWYKPRP, the “shrunken log2 fold change” value was -0.252.

Turning to RRIRFRPPRLPRPRPRPLLYPRP, the “shrunken log2 fold change” value is -1.01.

For RRIRRRPPRLPRPRPRPRWEPRP, the “shrunken log2 fold change” value came to 0.0983. For RRIRFRPPRLPRPRPRPVIFPRP, the “shrunken log2 fold change” value was determined as 0.774. For RRIRLRPPRLPRPRPRPICWPRP, the “shrunken log2 fold change” value is -0.0336. To RRIRPRPPRLPRPRPRPRKTPRP belongs 0.0393; to RRIRFRPPRLPRPRPRPVSTPRP, -0.476.

With RRIRQRPPRLPRPRPRPNKTPRP, the “shrunken log2 fold change” value was -0.0379.

As to RRIRPRPPRLPRPRPRPIQCPRP, the “shrunken log2 fold change” value is 0.0062.

Regarding RRIRRRPPRLPRPRPRPIWHPRP, the “shrunken log2 fold change” value worked out at 0.176. For RRIRSRPPRLPRPRPRPYFYPRP the value was -0.695; for RRIRTRPPRLPRPRPRPTSAPRP, 0.587. For RRIRGRPPRLPRPRPRPEDQPRP the value was 0.0373; for RRIRQRPPRLPRPRPRPIALPRP, -0.213; for RRIRQRPPRLPRPRPRPAISPRP, -0.292. To RRIRNRPPRLPRPRPRPHQQPRP belongs 0.317; to RRIRLRPPRLPRPRPRPNCIPRP, -0.603; to RRIRPRPPRLPRPRPRPHCHPRP, -0.0394. In the case of RRIRWRPPRLPRPRPRPHDIPRP, the “shrunken log2 fold change” value was determined as 0.00165. For RRIRSRPPRLPRPRPRPLILPRP the value was -0.628; for RRIRTRPPRLPRPRPRPTMAPRP, 0.201; for RRIRERPPRLPRPRPRPPTGPRP, 0.161. In the case of RRIRFRPPRLPRPRPRPQYPPRP, the “shrunken log2 fold change” value was determined as 0.041. For RRIRMRPPRLPRPRPRPHARPRP the value was 0.299; for RRIRYRPPRLPRPRPRPTDHPRP, -0.254. Consider RRIRSRPPRLPRPRPRPPEKPRP, for which the “shrunken log2 fold change” value turned out to be 0.797. For RRIRQRPPRLPRPRPRPKHKPRP the value was -0.0629; for RRIRFRPPRLPRPRPRPNLYPRP, -0.716; for RRIRFRPPRLPRPRPRPPENPRP, 0.102. Consider RRIRYRPPRLPRPRPRPLWQPRP, for which the “shrunken log2 fold change” value is -0.499. Regarding RRIRARPPRLPRPRPRPFSSPRP, the “shrunken log2 fold change” value is -0.159. For the sequence RRIRWRPPRLPRPRPRPPGIPRP, the “shrunken log2 fold change” value was 0.41.

For the sequence RRIRLRPPRLPRPRPRPFGVPRP, the “shrunken log2 fold change” value was determined as 0.028. For RRIRWRPPRLPRPRPRPSTEPRP the value was 0.0764; for RRIRPRPPRLPRPRPRPLNEPRP, -0.348; for RRIRARPPRLPRPRPRPVHLPRP, 0.215. For RRIRARPPRLPRPRPRPEGAPRP the value was 1.37; for RRIRQRPPRLPRPRPRPSQRPRP, -0.523; for RRIRLRPPRLPRPRPRPWRVPRP, 0.488. Turning to RRIRSRPPRLPRPRPRPWLIPRP, the “shrunken log2 fold change” value was -0.0422. To RRIRHRPPRLPRPRPRPHCWPRP belongs -0.0124; to RRIRSRPPRLPRPRPRPNKGPRP, -0.413; to RRIRSRPPRLPRPRPRPGYMPRP, -0.148. To RRIRIRPPRLPRPRPRPHCGPRP belongs -0.0759; to RRIRQRPPRLPRPRPRPKYRPRP, -0.0976; to RRIRVRPPRLPRPRPRPAPTPRP, 0.638. For RRIRQRPPRLPRPRPRPAPCPRP the value was 0.222. In the case of RRIRPRPPRLPRPRPRPISGPRP, the “shrunken log2 fold change” value was -0.154. For the sequence RRIRPRPPRLPRPRPRPSHCPRP, the “shrunken log2 fold change” value was -0.666.

With RRIRHRPPRLPRPRPRPTMTPRP, the “shrunken log2 fold change” value was -0.29. Take RRIRHRPPRLPRPRPRPNNVPRP: the “shrunken log2 fold change” value is -0.68. Regarding RRIRWRPPRLPRPRPRPEMKPRP, the “shrunken log2 fold change” value is 0.271. In the case of RRIRFRPPRLPRPRPRPWITPRP, the “shrunken log2 fold change” value is -0.192. To RRIRHRPPRLPRPRPRPWMNPRP belongs -0.0538; to RRIRHRPPRLPRPRPRPNEHPRP, 0.409.

Turning to RRIRNRPPRLPRPRPRPFTSPRP, the “shrunken log2 fold change” value was -0.0528. To RRIRIRPPRLPRPRPRPAERPRP belongs 0.0773. For RRIRERPPRLPRPRPRPTDRPRP the value was 0.0616; for RRIRHRPPRLPRPRPRPQIYPRP, -0.137; for RRIRDRPPRLPRPRPRPLLPPRP, 0.356. Consider RRIRYRPPRLPRPRPRPALVPRP, for which the “shrunken log2 fold change” value stood at 0.112. On to RRIRLRPPRLPRPRPRPFCMPRP, for which the “shrunken log2 fold change” value is -0.623.

In the case of RRIRWRPPRLPRPRPRPDQDPRP, the “shrunken log2 fold change” value is -0.0971.

Consider RRIRFRPPRLPRPRPRPWGCPRP, for which the “shrunken log2 fold change” value is -0.225.

On to RRIRQRPPRLPRPRPRPTAFPRP, for which the “shrunken log2 fold change” value came out at 0.321. As for RRIRMRPPRLPRPRPRPVEFPRP, the “shrunken log2 fold change” value was -0.0638. On to RRIRRRPPRLPRPRPRPRKMPRP, for which the “shrunken log2 fold change” value is 0.163. To RRIRARPPRLPRPRPRPSFTPRP belongs 0.582; to RRIRKRPPRLPRPRPRPFLSPRP, -0.0256; to RRIRMRPPRLPRPRPRPQGCPRP, -0.00385. To RRIRIRPPRLPRPRPRPQGEPRP belongs -0.0606. To RRIRIRPPRLPRPRPRPHSGPRP belongs -0.00591; to RRIRVRPPRLPRPRPRPCEAPRP, 0.0719. On to RRIRIRPPRLPRPRPRPTDVPRP, for which the “shrunken log2 fold change” value was -0.444.

With RRIRNRPPRLPRPRPRPHYWPRP, the “shrunken log2 fold change” value was -0.388. For RRIRMRPPRLPRPRPRPGMIPRP the value was -0.00139; for RRIRQRPPRLPRPRPRPSHPPRP, -0.272; for RRIRIRPPRLPRPRPRPHCMPRP, -0.697. To RRIRNRPPRLPRPRPRPVYGPRP belongs -0.0867; to RRIRPRPPRLPRPRPRPVYEPRP, -0.0626. For the sequence RRIRPRPPRLPRPRPRPAHMPRP, the “shrunken log2 fold change” value is -0.0534. With RRIRHRPPRLPRPRPRPSYMPRP, the “shrunken log2 fold change” value is -0.00144. On to RRIRHRPPRLPRPRPRPWPPPRP, for which the “shrunken log2 fold change” value amounted to 0.491. For the sequence RRIRLRPPRLPRPRPRPSCWPRP, the “shrunken log2 fold change” value is 0.0662.

For the origin of these results see the supplement of paper PMC9112550, “Optimization of the antimicrobial peptide Bac7 by deep mutational scanning” (BMC Biology, 2022).
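Also: peptides expressed intracellularly from a pBAD plasmid library in pooled LB shake-flask culture, induced with 0.3% L-arabinose, DNA abundance read by NGS, three biological replicates, DESeq2 with apeglm shrinkage.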
